From publication PMC8103107, “Myeloid‐resident neuropilin‐1 promotes choroidal neovascularization while mitigating inflammation” (EMBO Molecular Medicine, 2021)

T1: recombinant NRP1-derived trap consisting of the extracellular domain of NRP1 (UniProt O14786 22-856)
T1 construct: also called soluble NRP1; soluble receptor Neuropilin-1; source: purified recombinant
T1 sequence (looked up): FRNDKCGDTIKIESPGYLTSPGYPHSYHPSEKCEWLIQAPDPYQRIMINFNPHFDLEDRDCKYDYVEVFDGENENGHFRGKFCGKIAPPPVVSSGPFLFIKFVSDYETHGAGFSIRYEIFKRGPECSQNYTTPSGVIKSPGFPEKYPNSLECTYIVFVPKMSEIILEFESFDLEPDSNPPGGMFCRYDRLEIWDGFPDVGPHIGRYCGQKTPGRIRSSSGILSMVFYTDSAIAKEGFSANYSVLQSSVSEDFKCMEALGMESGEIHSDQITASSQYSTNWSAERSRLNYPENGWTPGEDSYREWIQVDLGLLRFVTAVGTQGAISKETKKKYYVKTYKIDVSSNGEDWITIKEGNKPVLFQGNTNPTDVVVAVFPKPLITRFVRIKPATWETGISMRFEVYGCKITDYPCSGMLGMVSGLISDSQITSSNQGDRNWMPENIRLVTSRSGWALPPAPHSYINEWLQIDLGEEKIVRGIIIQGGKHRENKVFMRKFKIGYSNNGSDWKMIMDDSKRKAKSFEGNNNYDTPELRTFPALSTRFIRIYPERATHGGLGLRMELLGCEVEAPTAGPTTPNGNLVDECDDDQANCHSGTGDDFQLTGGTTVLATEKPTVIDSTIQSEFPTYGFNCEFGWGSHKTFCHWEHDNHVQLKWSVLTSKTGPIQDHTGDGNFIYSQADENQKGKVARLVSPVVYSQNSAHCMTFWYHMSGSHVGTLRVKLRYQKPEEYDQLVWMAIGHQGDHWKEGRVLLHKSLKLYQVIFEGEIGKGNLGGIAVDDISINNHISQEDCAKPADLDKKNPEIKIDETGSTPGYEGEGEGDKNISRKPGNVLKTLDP


Target: T1, recombinant NRP1-derived trap …
Assay: SPR; Biacore T200; trap immobilised by amine coupling on a CM4 chip (100-150 RU); SEMA3A or VEGF-A injected at 12.5-100 nM, 40 ul/min, PBS with 0.025% (v/v) Tween-20; global fit to a one-site Langmuir binding model
Conditions: both partners purified

Row | Binder | Kd [nM]
1 | Semaphorin 3A (ligand, UniProt Q14563 21-771, looked up, Semaphorin 3A (SEMA3A), injected as analyte in SPR; also called SEMA3A; Sema3A) NYQNGKNNVPRLKLSYKEMLESNNVITFNGLANSSSYHTFLLDEERSRLYVGAKDHIFSFDLVNIKDFQKIVWPVSYTRRDECKWAGKDILKECANFIKVLKAYNQTHLYACGTGAFHPICTYIEIGHHPEDNIFKLENSHFENGRGKSPYDPKLLTASLLIDGELYSGTAADFMGRDFAIFRTLGHHHPIRTEQHDSRWLNDPKFISAHLISESDNPEDDKVYFFFRENAIDGEHSGKATHARIGQICKNDFGGHRSLVNKWTTFLKARLICSVPGPNGIDTHFDELQDVFLMNFKDPKNPVVYGVFTTSSNIFKGSAVCMYSMSDVRRVFLGPYAHRDGPNYQWVPYQGRVPYPRPGTCPSKTFGGFDSTKDLPDDVITFARSHPAMYNPVFPMNNRPIVIKTDVNYQFTQIVVDRVDAEDGQYDVMFIGTDVGTVLKVVSIPKETWYDLEEVLLEEMTVFREPTAISAMELSTKQQQLYIGSTAGVAQLPLHRCDIYGKACAECCLARDPYCAWDGSACSRYFPTAKRRTRRQDIRNGDPLTHCSDLHHDNHHGHSPEERIIYGVENSSTFLECSPKSQRALVYWQFQRRNEERKEEIRVDDHIIRTDQGLLLRSLQQKDSGNYLCHAVEHGFIQTLLKVTLEVIDTEHLEELLHKDDDGDGSKTKEMSNSMTPSQKVWYRDFMQLINHPNLNTMDEFCEQVWKRDRKQRRQRPGHTPGNSNKWKHLQENKKGRNRRTHEFERAPRSV | 0.67
2 | vascular endothelial growth factor A (ligand, Assumed to be VEGF165, the customary recombinant product, because the isoform is not printed. Mature residues 1-165 equal entry residues 207-395 with the exon 6a region 321-345 replaced by the …) APMAEGGGQNHHEVVKFMDVYQRSYCHPIETLVDIFQEYPDEIEYIFKPSCVPLMRCGGCCNDEGLECVPTEESNITMQIMRIKPHQGQHIGEMSFLQHNKCECRPKKDRARQENPCGPCSERRKHLFVQDPQTCKCSCKNTDSRCKARQLELNERTCRCDKPRR | 4.32
